Experimental data: patent US20240239907A1 (EDELWEISS IMMUNE, published 2024)
Changes are numbered by the printed parent chain.

T1: cynomolgus monkey CXCR6 (cynomolgus monkey, UniProt Q9BDS6 1-343)
T1 construct: also called cyno-CXCR6; cyno monkey CXCR6
T1 sequence: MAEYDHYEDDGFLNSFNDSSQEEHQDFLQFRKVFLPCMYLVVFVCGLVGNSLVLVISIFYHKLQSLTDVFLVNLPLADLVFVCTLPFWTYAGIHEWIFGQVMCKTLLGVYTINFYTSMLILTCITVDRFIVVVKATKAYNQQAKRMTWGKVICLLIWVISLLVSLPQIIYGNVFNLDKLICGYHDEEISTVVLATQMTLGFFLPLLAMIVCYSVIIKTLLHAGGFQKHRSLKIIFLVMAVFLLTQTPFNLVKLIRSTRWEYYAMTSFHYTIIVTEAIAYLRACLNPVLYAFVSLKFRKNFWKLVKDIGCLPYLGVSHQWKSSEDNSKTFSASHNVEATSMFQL

T2: N-terminal fusion protein linking the extracellular N terminus of human CXCR6 and the Fc region of human IgG1 (human, not fully specified)
T2 construct: not shown: Fc region of human IgG1
T2 chain: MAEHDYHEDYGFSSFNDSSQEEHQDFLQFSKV

B1: CNE-6E5-C1 (antibody, V domains shown)
VH: QVTLKESGPGILQSSQILSLTCSFSGFSLITSGMGVSWIRKTSGKGLEWLAHIYWDDEKRYNPSLKSRLTISKGTSRNQVFLRITSVDTTDTATYFCVRREDFGDGFDYWGQGTTLTVSP
VL: DVLMTQAPLSLPVSLGDQASISCRSSQTIVHSNGVTYLEWYLQKPGQSPKLLIYKVSNRFSGVPDRFSGSGSGTYFTLKISRVEAEDLGVYYCFQGSHVPPTFGGGTKLEIK
notes: Mouse-derived; tested at the screening stage
B2: COXs-2D2 human/mouse chimeric antibody with human IgG1 Fc (antibody, V domains shown)
VH: EVQLVESGGGLVQPKGSLKLSCTASGFSFDTYAMNWVRQAPGKGLEWIARIRSKSKNYATYYADSVKDRFTISRDDSANILYLQMNNLKTEDTAIYYCLRQGSFDYWGQGTTLTVSS
VL: DVVLTQTPLSLPVSLGDQASISCRSGQRIVHTDGNTYLYWYLQKPGQSPKLLIYRVSNRFSGVPDRFSGSGSGTDFTLKISRVEAEDMGIYYCFQGTHFPYTFGGGTKLEIK
B3: Beacon2-F1 (antibody, V domains shown)
VH: EVQLVESGGDLVKPGGSLKLSCAASGFTFSSYGMSWVRQTPDKRLEWVATISSGGSYTYYPDSVKGRFPISRDNAKNTLYQQMSSLNSEDTAMYYCARLYGNYPYFAMDYWGQGTSVTVSS
VL: DIVMTQSQKFMSTSVGDRVSITCKASQNVGTAVAWYQQKPGQSPKLLIFSASNRYTGVPDRFTGSGSGTDFTLTISNMQSEDLADYFCQQYSSYPYTFGGGTKLEIK
notes: as for B1
B4: CNE-6E10 human/mouse chimeric antibody with human IgG1 Fc (antibody, V domains shown)
VH: EVQLVESGGGLVQPKGSLKLSCAASGFSFNTYAMNWVRQAPGKGLEWVARIRSKTNSYETYYADSVKDRFTISRDDSESMLYLQMNNLKTEDTAVYYCLSHGAFAYWGQGTLVTVSA
VL: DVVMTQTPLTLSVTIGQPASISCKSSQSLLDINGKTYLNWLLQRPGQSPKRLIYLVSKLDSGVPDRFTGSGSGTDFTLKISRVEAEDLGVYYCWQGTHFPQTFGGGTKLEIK
B5: CNGs-3B2 (antibody, V domains shown)
VH: DVQLVESGGGLVQPGGSRTLSCAASGFTFSSFGMHWVRQAPEKGLEWVAYISSGSTTIYYADTVKGRFTISRDNPKNTLFLQVTSLRSEDTAVYYCTRSHWPYWYFDVWGAGTTVTVSS
VL: DVQITQSPSYLAASPGETITINCRASKSISKYLAWYQEKPGKTNKLLIYSGSTLQSGNPSRFSGSGSGTDFTLTISRLEPEDCAMYYCQQHNEFPWTFGGGTKLEIK
notes: as for B1
B6: Genovac1-G2 human/mouse chimeric antibody with human IgG1 Fc (antibody, V domains shown)
VH: DVQLQESGPGLVKPSQSLSLTCSVTGYSITSGYYWNWIRQFPGNKLEWMGYIRYDGSNNYNPSLKNRISITRDTSKNQFFLKLNSVTTEDTATYYCARDGYSTYFDYWGQGTTLTVSS
VL: DIQMTQSPASLSASVGETVTITCRASENIYSYLAWYQQKQGKSPQLLVYNAKTLAEGVPSRFSGSGSGTQFSLKINSLQPEDFGSYYCQHHYGTPWTFGGGTKLEIK
B7: Genovac2-C1 (antibody, V domains shown)
VH: DVKLVESGGGLVKPGGSLKLSCAASGFTFSSYTMSWVRQTPEKRLEWVATISSGGSYTYYPDSVKGRFTISRDNAKNTLYLQMSSLKSEDTAMYYCTRGGGNYPFWFFDVWGAGTTVTVSS
VL: B6 VL with N76K, T94I, W96R, L104V, I106T
notes: Mouse antibody
B8: chimeric Genovac2-C1 (antibody, V domains shown)
VH: B7 VH
VL: B6 VL with N76K, T94I, W96R, L104V, I106T
notes: also called Genovac2-C1 human chimeric mAb; human/mouse chimeric mAb
B9: Genovac1-G2 (antibody, V domains shown)
VH: B6 VH
VL: B6 VL
notes: Mouse-derived
B10: Beacon2-G5 (antibody, V domains shown)
VH: EVQLVESGGDLVKPGGSLKLSCAASGFTFSSYGMSWVRQTPDKRLEWVATISSRGSYTYYPDSVKGRLTISRENAKNTLSLQMSSLKSEDTAMYYCARRVFPYWFFDVWGAGTTVTVSS
VL: DIVMTQSHKFMSTSVGDRVSITCKASQDVSTAVAWYQQKSGQSPKLLIYSASYRYTGVPDRFTGSGSGTDFTFTISSVQAEDLAVYYCQQHYTTPYTFGGGTKLEIK
notes: Mouse-derived
B11: chimeric COXs-1B10 (antibody, V domains shown)
VH: QVTLKESGPGILKASQTLSLTCSFSGFSLSTSGMGIGWIRQPSGKGPEWLAHIWWDDEKYYRPSLKSRLTVSKDTSRNQVFLNITSVDTTDSASYYCVQRTPGRFAYWGQGTLVTVST
VL: DIVMTQSPSSLAVSIGQKVIMSCKSSQSLLSSRTQKNYLAWYQQKPGQSPKLLVYFASIRESGVPDRFTGSGSGTDFTLTISTVQAEDLAVYYCQQYFLTPYTFGGGTKLEIK
notes: also called COXs-1B10 human chimeric mAb

Experiments:
[1] = target: T1, cynomolgus monkey CXCR6; assay: screening on cells overexpressing CXCR6, one single concentration, yes/no
[2] = target: T3, human CXCR6 (human, UniProt O00574 1-342); assay: as above
T3 construct: also called hu-CXCR6; wild type human CXCR6
T3 sequence (O00574 whole entry): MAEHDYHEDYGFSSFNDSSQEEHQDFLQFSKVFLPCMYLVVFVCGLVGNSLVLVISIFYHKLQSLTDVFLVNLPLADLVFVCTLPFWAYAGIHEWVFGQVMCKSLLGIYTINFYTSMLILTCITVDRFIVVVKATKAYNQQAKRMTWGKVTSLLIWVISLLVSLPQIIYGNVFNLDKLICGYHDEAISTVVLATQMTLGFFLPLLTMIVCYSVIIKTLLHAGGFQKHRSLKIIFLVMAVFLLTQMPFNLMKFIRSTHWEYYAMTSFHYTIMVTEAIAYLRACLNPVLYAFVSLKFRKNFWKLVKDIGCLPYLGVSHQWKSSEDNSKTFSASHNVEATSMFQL

[3] = target: T3, human CXCR6; assay: description of the chimeric clones used in the ADCC example
[4] = target: T1, cynomolgus monkey CXCR6; assay: as above
[5] = target: T1, cynomolgus monkey CXCR6; assay: flow cytometry on cells overexpressing CXCR6, serial dilutions of antibody (FIG. 11)
Experimental: Wild type C57BL/6 mice were immunized and boosted with a full-length human CXCR6-vector. Prior to immunization, the vector was tested for cell surface expression of native human CXCR6 on transfected mammalian cell lines by flow cytometry to ensure a successful immunization and screening. Genetic immunization was performed by ballistically delivering DNA-coated gold particles into the skin of wild type C57BL/6 mice to elicit a target-specific immune response. After the serum test showing satisfactory titer of antibody binding to both human CXCR6 and cyno monkey CXCR6, mice were sacrificed. A single B cell platform was used to sequentially screen bone marrow antibody-producing plasma cells for binding to both human and cyno monkey CXCR6. The conventional hybridoma technique was used on splenocytes and lymph node cells. […] After sequencing the VH and VL, clones with distinct CDRs were further expressed as full-length murine antibodies or human chimeric antibodies. […]
Cells overexpressing human-CXCR6 (hu-CXCR6), cyno monkey CXCR6 (cyno-CXCR6) or mouse CXCR6 were cultured in DMEM medium containing 10% FCS. […] After two rounds of washing with PBS/0.5% BSA buffer, cells were further stained with fluorescence dye-labeled secondary antibody. After two more rounds of washing, cells were resuspended in PBS/0.5% BSA, fixed, and collected by flow cytometry and analyzed.

[6] = target: T3, human CXCR6; assay: flow cytometry on human CXCR6 over-expressing cells pre-incubated with competitor huCXCL-16 at 1,500 ng/ml (FIG. 16)
Experimental: (§1) After washing and staining with secondary antibody, cells were analyzed by flow cytometry. The ED₅₀ for huCXCL-16 binding to human CXCR6 is 10-50 ng/ml. Thus, 1,500 ng/ml huCXCL-16 is an overwhelming concentration for competing with chimeric Genovac2-C1. In the absence of huCXCL-16, the ED₅₀ for chimeric Genovac2-C1 binding to human CXCR6 was 0.5 μg/ml (FIG. 16). In the presence of huCXCL-16 (1,500 ng/ml), the ED₅₀ for chimeric Genovac2-C1 binding to human CXCR6 was 1.5 μg/ml (FIG. 16). Accordingly, the human/mouse chimeric mAb retains the binding specificity and affinity in the presence of CXCL-16.

[7] = target: T3, human CXCR6; assay: flow cytometry on human CXCR6 over-expressing cells, no huCXCL-16 (FIG. 16)
Experimental: as §1

[8] = target: T2, N-terminal fusion protein linking the …; assay: antibody pre-incubated with N-terminus-Fc fusion before staining human CXCR6 cells, flow cytometry (FIG. 12B)
Experimental: Three candidate antibodies that bind only to human CXCR6 and three candidate antibodies that bind to both human and cyno CXCR6 were further analyzed to locate their epitope residues. An N-terminal fusion protein was generated by linking the extracellular N terminus of human CXCR6 and the Fc region of human IgG1. Prior to staining cells over-expressing human CXCR6, the candidate antibodies (1 μg/ml) were pre-incubated with the N-terminal fusion protein (25 μg/ml) for 15 minutes at room temperature. A commercial antibody (R&D system, Minneapolis, MN) that only binds to human CXCR6 but not cyno- or mouse-CXCR6, was used as a control antibody.

Row | Binder | binding result [1] | binding result [2] | binding result [3] | also measured
1 | B1 | binds | binds |  | 
2 | B2 |  |  | binds | 
3 | B3 | binds | binds |  | 
4 | B4 |  |  | binds | 
5 | B5 | binds | binds |  | 
6 | B6 |  |  | binds | binding result [4]: binds
7 | B7 |  |  |  | binding result [5]: binds
8 | B8 |  |  |  | EC50 [6]: 1.5 µg/mL; EC50 [7]: 0.5 µg/mL; binding result [4]: binds
9 | B9 |  | binds |  | binding result [5]: binds
10 | B10 | binds | binds |  | binding result [8]: no binding
11 | B11 |  |  | binds | 
